From the Human Domainome abundance scans (Beltran et al. 2025)
± gives the uncertainty stated by the source.

B1: Ubiquitin-protein ligase residues 30 to 86; numbered along this chain, Q05086 (parent)
chain: KHLIERYYHQLTEGCGNEACTNEFCASCPTFLRMDNNAAAIKALELYKINAKLCDPH

Variants of: B1
Assay: abundance fitness (aPCA) (normalised: wild type 0, dead -1); higher = more abundant; growth selection in yeast, the domain comes from the species named
Conditions: Homo sapiens

In order of rising abundance fitness:
1. A43F  -1.06 ± 0.21
2. A43W  -0.989 ± 0.099
3. A43H  -0.987 ± 0.16
4. A43I  -0.92 ± 0.19
5. A43E  -0.894 ± 0.1
6. A43D  -0.856 ± 0.12
7. A43L  -0.826 ± 0.071
8. A43N  -0.768 ± 0.15
9. K42P  -0.735 ± 0.14
10. A43R  -0.717 ± 0.063
11. K48F  -0.682 ± 0.13
12. K48I  -0.607 ± 0.18
13. K42I  -0.498 ± 0.13
14. A43P  -0.467 ± 0.078
15. K48V  -0.455 ± 0.06
16. K48Y  -0.438 ± 0.14
17. K52W  -0.437 ± 0.32
18. K48C  -0.427 ± 0.096
19. K48M  -0.424 ± 0.08
20. K42F  -0.408 ± 0.21
21. K42V  -0.392 ± 0.059
22. K48L  -0.388 ± 0.061
23. K48W  -0.357 ± 0.085
24. A51P  -0.35 ± 0.1
25. K42G  -0.343 ± 0.052
26. D35Y  -0.333 ± 0.12
27. A43M  -0.321 ± 0.078
28. K52S  -0.31 ± 0.33
29. D35W  -0.308 ± 0.083
30. K42W  -0.293 ± 0.064
31. A51Q  -0.289 ± 0.099
32. K42C  -0.282 ± 0.096
33. K42M  -0.269 ± 0.086
34. D35F  -0.265 ± 0.17
35. A40I  -0.242 ± 0.16
36. A43K  -0.242 ± 0.088
37. I41W  -0.239 ± 0.063
38. D55H  -0.227 ± 0.11
39. K48P  -0.222 ± 0.092
40. A43V  -0.221 ± 0.057
41. D35H  -0.213 ± 0.12
42. K42L  -0.211 ± 0.066
43. D35K  -0.199 ± 0.13
44. K42N  -0.198 ± 0.11
45. A51Y  -0.195 ± 0.15
46. A40F  -0.194 ± 0.1
47. A40Y  -0.192 ± 0.2
48. A51M  -0.189 ± 0.099
49. K48G  -0.188 ± 0.05
50. D35V  -0.187 ± 0.054
51. K42A  -0.184 ± 0.068
52. K42S  -0.178 ± 0.069
53. D35I  -0.177 ± 0.1
54. A40P  -0.171 ± 0.089
55. K48A  -0.17 ± 0.059
56. K48S  -0.161 ± 0.067
57. L44W  -0.16 ± 0.061
58. D55Y  -0.159 ± 0.086
59. K42T  -0.157 ± 0.08
60. A43G  -0.156 ± 0.054
61. A51N  -0.152 ± 0.13
62. A51C  -0.151 ± 0.1
63. D55I  -0.149 ± 0.098
64. A51H  -0.147 ± 0.13
65. D35P  -0.135 ± 0.1
66. D35C  -0.133 ± 0.087
67. I41Y  -0.123 ± 0.087
68. L44F  -0.122 ± 0.13
69. K48T  -0.122 ± 0.079
70. D55R  -0.118 ± 0.066
71. D35T  -0.112 ± 0.081
72. K48H  -0.111 ± 0.15
73. K48Q  -0.109 ± 0.1
74. K42H  -0.109 ± 0.14
75. K42E  -0.109 ± 0.073
76. D55W  -0.106 ± 0.074
77. D55C  -0.099 ± 0.088
78. A43C  -0.098 ± 0.075
79. L44H  -0.096 ± 0.16
80. D35R  -0.095 ± 0.071
81. D35N  -0.094 ± 0.094
82. Y47I  -0.094 ± 0.11
83. D35L  -0.091 ± 0.07
84. D55T  -0.087 ± 0.085
85. Y47W  -0.085 ± 0.061
86. K42Q  -0.085 ± 0.077
87. D35Q  -0.084 ± 0.13
88. A40L  -0.083 ± 0.076
89. I41L  -0.072 ± 0.055
90. K48R  -0.072 ± 0.052
91. I41P  -0.069 ± 0.068
92. D35A  -0.067 ± 0.074
93. D55F  -0.06 ± 0.097
94. D55S  -0.059 ± 0.068
95. D35M  -0.058 ± 0.1
96. K48E  -0.058 ± 0.078
97. I41M  -0.053 ± 0.076
98. A51F  -0.053 ± 0.14
99. K52R  -0.052 ± 0.17
100. A51D  -0.052 ± 0.085
101. Y47P  -0.05 ± 0.092
102. D55A  -0.043 ± 0.059
103. A40W  -0.04 ± 0.074
104. D35G  -0.039 ± 0.061
105. L44C  -0.032 ± 0.12
106. Y47Q  -0.03 ± 0.096
107. I41C  -0.028 ± 0.062
108. D55L  -0.027 ± 0.057
109. D55P  -0.027 ± 0.088
110. D35E  -0.026 ± 0.079
111. K42R  -0.023 ± 0.052
112. A40K  -0.023 ± 0.13
113. D35S  -0.022 ± 0.07
114. D55G  -0.018 ± 0.061
115. D55E  -0.017 ± 0.072
116. A40Q  -0.015 ± 0.11
117. I41T  -0.013 ± 0.063
118. D55V  -0.012 ± 0.057
119. A51S  -0.012 ± 0.062
120. I41R  0 ± 0.047
121. I41G  0.001 ± 0.052
122. D55M  0.006 ± 0.088
123. Y47G  0.008 ± 0.047
124. K48D  0.009 ± 0.1
125. I41V  0.01 ± 0.057
126. D55Q  0.011 ± 0.08
127. I41A  0.012 ± 0.059
128. Y47N  0.012 ± 0.14
129. K48N  0.012 ± 0.15
130. L44N  0.013 ± 0.14
131. L44V  0.017 ± 0.061
132. D55N  0.017 ± 0.091
133. I41D  0.024 ± 0.087
134. A40D  0.025 ± 0.11
135. Y47L  0.027 ± 0.056
136. A43S  0.027 ± 0.059
137. I41E  0.029 ± 0.067
138. Y47C  0.031 ± 0.085
139. Y47K  0.031 ± 0.12
140. I41S  0.035 ± 0.052
141. A40S  0.037 ± 0.062
142. A40N  0.041 ± 0.14
143. L44D  0.042 ± 0.14
144. A40G  0.046 ± 0.063
145. Y47R  0.05 ± 0.052
146. L44S  0.051 ± 0.068
147. D55K  0.056 ± 0.084
148. L44G  0.057 ± 0.052
149. L44A  0.057 ± 0.062
150. L44P  0.059 ± 0.095
151. Y47V  0.06 ± 0.053
152. I41H  0.064 ± 0.084
153. A40C  0.067 ± 0.11
154. Y47T  0.073 ± 0.1
155. L44R  0.074 ± 0.051
156. I41Q  0.075 ± 0.076
157. I41K  0.08 ± 0.089
158. A40T  0.08 ± 0.1
159. Y47S  0.084 ± 0.067
160. Y47A  0.088 ± 0.059
161. Y47H  0.088 ± 0.14
162. L44K  0.108 ± 0.11
163. Y47F  0.108 ± 0.13
164. L44T  0.118 ± 0.1
165. L44Y  0.131 ± 0.13
166. A40E  0.159 ± 0.098
167. L44I  0.173 ± 0.23
